Reference: article PMC3303126 (Nature structural & molecular biology, 2012)

Legend:
[1] = target: T1, His-Thp1 (full-length Thp1, coexpressed with Sem1) (S. cerevisiae, UniProt Q08231 1-455); assay: pull-down
T1 sequence: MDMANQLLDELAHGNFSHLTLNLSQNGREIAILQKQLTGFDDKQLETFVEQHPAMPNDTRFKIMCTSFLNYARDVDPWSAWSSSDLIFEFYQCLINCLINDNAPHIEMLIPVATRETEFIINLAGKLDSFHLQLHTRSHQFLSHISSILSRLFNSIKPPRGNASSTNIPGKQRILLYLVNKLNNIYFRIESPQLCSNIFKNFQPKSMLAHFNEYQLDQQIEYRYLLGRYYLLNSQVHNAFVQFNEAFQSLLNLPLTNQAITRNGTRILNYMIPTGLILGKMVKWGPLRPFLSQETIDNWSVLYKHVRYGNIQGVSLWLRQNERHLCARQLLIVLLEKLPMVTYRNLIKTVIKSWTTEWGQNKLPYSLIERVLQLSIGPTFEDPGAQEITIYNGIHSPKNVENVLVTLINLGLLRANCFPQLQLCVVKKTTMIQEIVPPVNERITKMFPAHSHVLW

[2] = target: T2, Sac3-M (Sac3 250-563);Thp1;Sem1 (Saccharomyces cerevisiae;Saccharomyces …, UniProt P46674;Q08231;O94742 250-563;1-455;1-89, ||); assay: EMSA
T2 sequence 1: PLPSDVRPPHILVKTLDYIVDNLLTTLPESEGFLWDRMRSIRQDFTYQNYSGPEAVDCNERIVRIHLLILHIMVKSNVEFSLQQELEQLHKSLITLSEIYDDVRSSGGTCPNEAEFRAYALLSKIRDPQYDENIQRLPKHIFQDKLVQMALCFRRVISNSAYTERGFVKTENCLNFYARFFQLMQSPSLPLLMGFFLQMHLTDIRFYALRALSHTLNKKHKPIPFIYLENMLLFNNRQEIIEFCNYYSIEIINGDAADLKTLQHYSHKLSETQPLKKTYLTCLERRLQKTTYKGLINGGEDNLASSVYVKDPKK
T2 sequence 2: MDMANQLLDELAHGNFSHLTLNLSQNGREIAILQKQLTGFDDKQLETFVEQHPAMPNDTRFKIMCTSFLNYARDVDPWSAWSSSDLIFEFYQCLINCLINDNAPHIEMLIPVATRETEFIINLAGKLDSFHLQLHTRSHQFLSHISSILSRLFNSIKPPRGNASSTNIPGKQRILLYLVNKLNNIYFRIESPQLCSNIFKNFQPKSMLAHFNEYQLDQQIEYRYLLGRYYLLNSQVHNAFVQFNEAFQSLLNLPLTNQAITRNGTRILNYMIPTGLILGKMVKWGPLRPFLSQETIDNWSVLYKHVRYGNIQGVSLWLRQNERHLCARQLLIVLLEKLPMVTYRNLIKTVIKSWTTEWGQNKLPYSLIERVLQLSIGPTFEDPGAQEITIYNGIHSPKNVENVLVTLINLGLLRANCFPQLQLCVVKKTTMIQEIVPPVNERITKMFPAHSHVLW
T2 sequence 3: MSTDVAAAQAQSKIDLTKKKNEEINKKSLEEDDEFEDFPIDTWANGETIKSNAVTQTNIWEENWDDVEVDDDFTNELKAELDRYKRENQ

[3] = target: T1, His-Thp1 (full-length Thp1, coexpressed …); assay: crystal structure
[4] = target: T2, Sac3-M (Sac3 250-563);Thp1;Sem1; assay: EMSA; remark: listed apart in the source
[5] = target: T3, ProtA-Sac3 250-563;Thp1;Sem1 (Saccharomyces cerevisiae;Saccharomyces …, UniProt P46674;Q08231;O94742 250-563;1-455;1-89, ||); assay: EMSA
T3 sequence 1: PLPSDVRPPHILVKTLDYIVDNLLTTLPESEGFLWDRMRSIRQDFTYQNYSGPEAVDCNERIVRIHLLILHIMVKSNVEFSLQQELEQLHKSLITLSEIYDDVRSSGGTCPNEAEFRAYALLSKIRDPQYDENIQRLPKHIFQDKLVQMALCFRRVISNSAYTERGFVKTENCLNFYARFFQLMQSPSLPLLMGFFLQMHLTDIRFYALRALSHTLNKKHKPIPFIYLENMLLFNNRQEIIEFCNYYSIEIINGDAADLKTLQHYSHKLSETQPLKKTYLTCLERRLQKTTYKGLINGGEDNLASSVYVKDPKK
T3 sequence 2: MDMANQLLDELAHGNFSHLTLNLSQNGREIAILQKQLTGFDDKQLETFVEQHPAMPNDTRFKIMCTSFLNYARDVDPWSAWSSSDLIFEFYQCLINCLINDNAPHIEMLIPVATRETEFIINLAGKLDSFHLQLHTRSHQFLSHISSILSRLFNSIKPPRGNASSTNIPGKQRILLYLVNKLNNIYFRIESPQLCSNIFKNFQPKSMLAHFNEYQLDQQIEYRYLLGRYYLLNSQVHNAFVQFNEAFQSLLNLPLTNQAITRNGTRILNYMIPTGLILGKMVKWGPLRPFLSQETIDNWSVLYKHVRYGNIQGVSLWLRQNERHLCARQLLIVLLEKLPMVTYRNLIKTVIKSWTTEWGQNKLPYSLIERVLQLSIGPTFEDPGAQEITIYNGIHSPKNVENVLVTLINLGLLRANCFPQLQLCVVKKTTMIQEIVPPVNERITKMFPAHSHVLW
T3 sequence 3: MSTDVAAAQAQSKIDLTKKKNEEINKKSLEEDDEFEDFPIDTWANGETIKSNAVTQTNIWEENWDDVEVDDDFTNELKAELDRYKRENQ

B1: Sem1 (full length, bacterially expressed) (natural protein)
chain: MSTDVAAAQAQSKIDLTKKKNEEINKKSLEEDDEFEDFPIDTWANGETIKSNAVTQTNIWEENWDDVEVDDDFTNELKAELDRYKRENQ
[1]
  binding result: binds

## UUUUUUUUUUUUUUUUUUUUUUUUU (ssRNA) [polyU25 RNA]
[2]
  Kd: 175 nM

B2: Sac3 residues 250-563 (Sac3-M), as crystallised (domain or fragment)
chain: PLPSDVRPPHILVKTLDYIVDNLLTTLPESEGFLWDRMRSIRQDFTYQNYSGPEAVDCNERIVRIHLLILHIMVKSNVEFSLQQELEQLHKSLITLSEIYDDVRSSGGTCPNEAEFRAYALLSKIRDPQYDENIQRLPKHIFQDKLVQMALCFRRVISNSAYTERGFVKTENCLNFYARFFQLMQSPSLPLLMGFFLQMHLTDIRFYALRALSHTLNKKHKPIPFIYLENMLLFNNRQEIIEFCNYYSIEIINGDAADLKTLQHYSHKLSETQPLKKTYLTCLERRLQKTTYKGLINGGEDNLASSVYVKDPKK
[3]
  binding result: binds

## AAAAAAAAAAAAAAAAAAAAAAAAA (ssRNA) [polyA25 RNA]
[4]
  binding result: binds
[5]
  binding result: binds
